# From patent US6635802B1, “Nuclear transfer using cells cultured in serum starvation media containing apoptosis inhibitors” (The Texas A&M University System, priority 2000, dated 2003)
# B1: α2-macroglobulin (protein, UniProt P01023 24-1474, looked up)
# Alpha-2-macroglobulin: SVSGKPQYMVLVPSLLHTETTEKGCVLLSYLNETVTVSASLESVRGNRSLFTDLEAENDVLHCVAFAVPKSSSNEEVMFLTVQVKGPTQEFKKRTTVMVKNEDSLVFVQTDKSIYKPGQTVKFRVVSMDENFHPLNELIPLVYIQDPKGNRIAQWQSFQLEGGLKQFSFPLSSEPFQGSYKVVVQKKSGGRTEHPFTVEEFVLPKFEVQVTVPKIITILEEEMNVSVCGLYTYGKPVPGHVTVSICRKYSDASDCHGEDSQAFCEKFSGQLNSHGCFYQQVKTKVFQLKRKEYEMKLHTEAQIQEEGTVVELTGRQSSEITRTITKLSFVKVDSHFRQGIPFFGQVRLVDGKGVPIPNKVIFIRGNEANYYSNATTDEHGLVQFSINTTNVMGTSLTVRVNYKDRSPCYGYQWVSEEHEEAHHTAYLVFSPSKSFVHLEPMSHELPCGHTQTVQAHYILNGGTLLGLKKLSFYYLIMAKGGIVRTGTHGLLVKQEDMKGHFSISIPVKSDIAPVARLLIYAVLPTGDVIGDSAKYDVENCLANKVDLSFSPSQSLPASHAHLRVTAAPQSVCALRAVDQSVLLMKPDAELSASSVYNLLPEKDLTGFPGPLNDQDNEDCINRHNVYINGITYTPVSSTNEKDMYSFLEDMGLKAFTNSKIRKPKMCPQLQQYEMHGPEGLRVGFYESDVMGRGHARLVHVEEPHTETVRKYFPETWIWDLVVVNSAGVAEVGVTVPDTITEWKAGAFCLSEDAGLGISSTASLRAFQPFFVELTMPYSVIRGEAFTLKATVLNYLPKCIRVSVQLEASPAFLAVPVEKEQAPHCICANGRQTVSWAVTPKSLGNVNFTVSAEALESQELCGTEVPSVPEHGRKDTVIKPLLVEPEGLEKETTFNSLLCPSGGEVSEELSLKLPPNVVEESARASVSVLGDILGSAMQNTQNLLQMPYGCGEQNMVLFAPNIYVLDYLNETQQLTPEIKSKAIGYLNTGYQRQLNYKHYDGSYSTFGERYGRNQGNTWLTAFVLKTFAQARAYIFIDEAHITQALIWLSQRQKDNGCFRSSGSLLNNAIKGGVEDEVTLSAYITIALLEIPLTVTHPVVRNALFCLESAWKTAQEGDHGSHVYTKALLAYAFALAGNQDKRKEVLKSLNEEAVKKDNSVHWERPQKPKAPVGHFYEPQAPSAEVEMTSYVLLAYLTAQPAPTSEDLTSATNIVKWITKQQNAQGGFSSTQDTVVALHALSKYGAATFTRTGKAAQVTIQSSGTFSSKFQVDNNNRLLLQQVSLPELPGEYSMKVTGEGCVYLQTSLKYNILPEKEEFPFALGVQTLPQTCDEPKAHTSFQISLSVSYTGSRSASNMAIVDVKMVSGFIPLKPTVKMLERSNHVSRTEVSSNHVLIYLDKVSNQTLSLFFTVLQDVPVRDLKPAIVKVYDYYETDEFAIAEYNAPCSKDLGNA
# Key:
# Format in all cases: cell-based
# [1] = test system: Bovine embryonic fibroblasts (BEF); test: TUNEL assay (flow cytometry) of serum starved bovine embryonic fibroblasts; details: MAC 0.7 pM, NAC 1 mM, GSH 2 mM; for 5-day Apoptosis (%): serum starvation 5 days, serum starved without inhibitor 15.0; for 10-day Apoptosis (%): serum starvation 10 days, serum starved without inhibitor 20.4
# Experimental: Bovine embryonic fibroblasts (BEF) were isolated from the fetus with 3-5 cm crown-rump length. After two or three passages, cells were plated one million cells per plate (100 mm) with growth medium (DMEM) with 2 mM L-glutamine, 0.1 mM β-mercaptoethanol and 10% FBS. After 24 hours, cells were washed with PBS 3-5 times and then serum starvation medium with 0.5% FBS was added. In addition, cells were treated with serum starvation medium containing apoptosis inhibitors such as a2-macroglobulin (0.7 pM), N-acetylcysteine (1 mM) and glutathione (2 mM). Cells were treated with serum starvation with or without apoptosis inhibitors for 5 or 10 days. Then cells were trypsinized and counted.
# After counting, cells were fixed and stained according to protocols with the APO-BRDU kit (Phoenix Flow Systems, San Diego, Calif.). Briefly, cells were fixed in 1% paraformaldehyde in PBS on ice for 15 minutes, washed in PBS, and fixed in 70% ethanol and stored at −20° C. until use. After removing the fixative, cells were washed twice and suspended in 50 μl of labeling solution containing Br-dUTP (bromolated deoxyuridine triphosphate) and TdT (terminal deoxynucleotidyl transferase) for 60 minutes at 37° C. TdT catalyzes the addition of Br-dUTP to the 3′-OH ends of DNA strand breaks in a template independent manner. To determine base line fluorescence, control cells were incubated without TdT. After rinsing, cells were incubated with an anti-BrdU monoclonal antibody conjugated to fluorescein for 30 minutes in the dark at room temperature; apoptotic cells which contain many free 3′-OH ends are intensely labeled, while non-apoptotic cells whose DNA is largely intact have little Br-dUTP incorporation and remain unlabeled. Following counterstaining with a propidium iodide/RNase A solution for 30 minutes in the dark, which allows simultaneous analysis of cell cycle position and apoptosis, cells were analyzed on a FACSCalibur™ flow cytometer (Becton Dickinson, San Jose, Calif.). Fluorescence emissions were measured at 582±21 nm for propidium iodide and 530±15 nm for fluorescein, without spectral compensation, after excitation at 488 nm by an argon-ion laser. For analysis, gates were set so that less than 2% of samples incubated without TdT were positive. Any event above this gate was deemed TUNEL positive for samples incubated with TdT.
# porcine PGCs [2] = test: In vitro culture of porcine PGCs on STO feeder cells with apoptosis inhibitors; AP-stained colonies counted
# porcine PGCs [3] = test: as above; details: for Effect of timing of exposure on number of colonies, in words: all 8 days vs first 4 days vs last 4 days
# Text: Porcine fetuses were collected from hysterectomized uteri of four-way crossbred gilts (DeKalb, Ill.) between day 25 and 30 of pregnancy (estrus=day 0). Fetuses were washed in phosphate buffered saline supplemented with BSA (0.4%, Sigma St. Louis, Mo.) and penicillin/streptomycin (1%, Gibco BRL, Rockville, Md.) (PBS/BSA/PS). Urogenital ridges, appeared as longitudinal protrusions along the medial mesonephric surface, were isolated and washed in PBS/BSA/PS followed by several washes in PES medium before PGC collection. The PES medium was comprised of 50:50 mixture of Dulbecco's modified Eagle's medium (DMEM) and Ham's F10 medium supplemented with 15% fetal bovine serum (FBS), L-glutamine (2 mM), β-mercaptoethanol (0.1 mM), MEM non-essential amino acids (1%) and penicillin/streptomycin (1%). All media and supplements were purchased from Gibco BRL.
# PGCs were isolated by incubation in 0.25% trypsin/1 mM EDTA solution (Gibco BRL) followed by gentle pipetting or by mechanical dissociation of ridges into small fragments followed by gentle pipetting. After tissue disruption, cells were centrifuged for 5 minutes at 250 rpm to remove tissue debris and clumps. The supernatant containing most the single cells was collected and centrifuged at 1000 rpm for 10 minutes.
# PGCs were resuspended with PES medium containing cytokines, such as soluble recombinant human stem cell factor (SCF; 40 ng/ml), human basic fibroblast growth factor (bFGF; 20 ng/ml), and human leukemia inhibitory factor (LIF; 20 ng/ml). All cytokines were obtained from R&D Systems (Minneapolis, Minn.). Cell suspensions were plated on irradiated mouse STO feeder cells (3×10^6 cells per 35 mm well), prepared as previously described (Piedrahita et al., 1998) and cultured in humidified environment of 5% CO2 in air, 38° C. PGC-derived colonies with ES-like morphology after 7-10 days of culture are passaged to fresh feeders for establishment of cell lines. PGC-derived colonies were dissociated with 0.25% trypsin/1 mM EDTA (Gibco BRL) for 10 minutes. […] To identify PGC-derived cells and the state of differentiation were determined by morphology and by expression of alkaline phosphatase (AP).
# AP activity was determined as described previously (Moore and Piedrahita, 1997). Briefly, culture plates were rinsed twice in PBS and fixed in 4% formaldehyde in PBS for 15 minutes at room temperature. Fixed cells were washed twice with PBS and stained in naphtol AS-MX phosphate (200 μg/ml; Sigma) and Fast Red TR salt (1 mg/ml; Sigma) in 100 mM Tris buffer, pH 8.2 for 30 minutes at room temperature. Staining was terminated by washing cultures in PBS. Specificity of AP activity was determined by staining in the presence of the AP inhibitor, tetramisole (500 μM; Sigma). Mouse ES cells also were stained as control for AP activity.
# To determine the effect of apoptosis inhibitors on survival of porcine PGCs in vitro, freshly isolated PGCs were cultured as described above with or without apoptosis inhibitors, α2-macroglobulin (MAC: broad range protease inhibitor, 1.4 pM) and N-acetylcysteine (NAC: antioxidant, 1 mM). After 7-10 days of culture, colonies were stained for AP activity and counted. Studies were performed at least three replicates. The data were normalized to the treatment with no inhibitors added (control) and tested for homogeneity of variance and analyzed by ANOVA. Mean separation is accomplished by Fisher's protected LSD using software SuperANOVA (Abacus Concepts).
# Dose titration of MAC (0.35, 0.7, 1.4, and 2.8 pM) and NAC (0.25, 0.5, 1.0, and 2.0 mM), to determine the optimal concentration of inhibitors, were performed.
# [4] = Table 3 combined effects study: MAC 0.7 pM, NAC 1.0 mM, alone or together, normalized to control
molecule,measurement,setting,value
"CC(=O)N[C@@H](CS)C(=O)O [NAC, N-acetylcysteine]",5-day Apoptosis (%),[1],1.8%
same,10-day Apoptosis (%),[1],1.1%
same,Normalized # of Colonies + SE,porcine PGCs [2]; [4],2.73 ± 0.03
same,Normalized # of Colonies + SE,"porcine PGCs [3]; 0.25 mM NAC, normalized to control, Table 2 dose response",1.23 ± 0.14
same,Normalized # of Colonies + SE,"porcine PGCs [3]; 0.5 mM NAC, normalized to control, Table 2 dose response",1.75 ± 0.13
same,Normalized # of Colonies + SE,"porcine PGCs [3]; 1.0 mM NAC, normalized to control, Table 2 dose response",2.07 ± 0.19
same,Normalized # of Colonies + SE,"porcine PGCs [3]; 2.0 mM NAC, normalized to control, Table 2 dose response",2.21 ± 0.04
same,Normalized # of Colonies + SE,"porcine PGCs [3]; NAC (1.0 mM) 1-4 days (FH), Table 5 timing study",2.86 ± 0.55
same,Normalized # of Colonies + SE,"porcine PGCs [3]; NAC (1.0 mM) 5-8 days (LH), Table 5 timing study",1.01 ± 0.035
same,Normalized # of Colonies + SE,"porcine PGCs [3]; NAC (1.0 mM) all 8 days, Table 5 timing study",2.64 ± 0.49
same,Normalized # of Colonies + SE,"porcine PGCs [3]; Table 7 antioxidants: NAC 1.0 mM, BHA 0.1 mM, BPN 1.0 mM, CIM 2.0 mM, normalized to control",1.93 ± 0.10
same,"Effect of timing of exposure on number of colonies, in words",porcine PGCs [3],Addition at later days has little effect
same,Concentration of maximal response (number of colonies) over the doses studied,porcine PGCs [3]; doses 0.25-2.0 mM studied,2.0 mM
B1,5-day Apoptosis (%),[1],3.9%
same,10-day Apoptosis (%),[1],4.6%
same,Normalized # of Colonies + SE,"porcine PGCs [2]; MAC (0.7 pM) 1-4 days (FH), Table 4 timing study",1.21 ± 0.05
same,Normalized # of Colonies + SE,"porcine PGCs [2]; MAC (0.7 pM) 5-8 days (LH), Table 4 timing study",1.23 ± 0.09
same,Normalized # of Colonies + SE,porcine PGCs [2]; [4],2.00 ± 0.18
same,Normalized # of Colonies + SE,"porcine PGCs [2]; Table 6 protease inhibitors: MAC 0.7 pM, PA 50 μM, AEBSF 250 μM, TLCK 100 μM, normalized to control",1.72 ± 0.15
same,Normalized # of Colonies + SE,"porcine PGCs [3]; 0.35 pM MAC, normalized to control without inhibitor, Table 1 dose response",1.43 ± 0.03
same,Normalized # of Colonies + SE,"porcine PGCs [3]; 0.7 pM MAC, normalized to control, Table 1 dose response",1.90 ± 0.08
same,Normalized # of Colonies + SE,"porcine PGCs [3]; 1.40 pM MAC, normalized to control, Table 1 dose response",1.50 ± 0.01
same,Normalized # of Colonies + SE,"porcine PGCs [3]; 2.8 pM MAC, normalized to control, Table 1 dose response",1.16 ± 0.06
same,Normalized # of Colonies + SE,"porcine PGCs [3]; MAC (0.7 pM) all 8 days, Table 4 timing study",1.64 ± 0.08
same,"Number of first passage colonies, in words",porcine PGCs [3]; added to the culture media,increased the number of first passage colonies
same,"Effect of timing of exposure on number of colonies, in words",porcine PGCs [3],maximal effects result when MAC is present throughout the incubation period
same,Concentration of maximal response (number of colonies),porcine PGCs [3]; doses 0.35-2.8 pM studied,0.7 pM
same,"Effect upon second passage, in words",porcine PGCs [3]; independent of previous culture in the presence of the molecule,protective effect
same,"Effect on the number of PGCs, in words",porcine PGCs [3]; single concentrations of Tables 6 and 7,"induced the most, and significantly, positive effect"
